Measurements: patent US20250197467A1 (BRIGHT PEAK THERAPEUTICS, published 2025)

T1: IL-18 receptor (IL-18Rαβ) on cells (UniProt Q13478 19-541; O95256 20-599, limits assumed)
T1 sequence (looked up) 1: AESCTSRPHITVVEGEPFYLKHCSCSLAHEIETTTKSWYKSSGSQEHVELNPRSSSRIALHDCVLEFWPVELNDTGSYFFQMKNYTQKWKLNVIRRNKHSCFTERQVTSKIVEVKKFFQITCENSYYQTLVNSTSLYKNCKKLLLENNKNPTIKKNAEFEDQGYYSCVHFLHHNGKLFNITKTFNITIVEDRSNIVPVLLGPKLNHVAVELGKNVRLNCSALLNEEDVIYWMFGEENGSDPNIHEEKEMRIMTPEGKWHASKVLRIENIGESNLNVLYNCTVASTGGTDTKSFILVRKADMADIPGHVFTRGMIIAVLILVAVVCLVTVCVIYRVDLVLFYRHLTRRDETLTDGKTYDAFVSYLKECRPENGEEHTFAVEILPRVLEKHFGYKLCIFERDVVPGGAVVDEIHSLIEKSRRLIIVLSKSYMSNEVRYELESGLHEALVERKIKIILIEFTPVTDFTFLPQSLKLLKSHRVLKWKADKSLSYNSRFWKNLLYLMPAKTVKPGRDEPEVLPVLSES
T1 sequence (looked up) 2: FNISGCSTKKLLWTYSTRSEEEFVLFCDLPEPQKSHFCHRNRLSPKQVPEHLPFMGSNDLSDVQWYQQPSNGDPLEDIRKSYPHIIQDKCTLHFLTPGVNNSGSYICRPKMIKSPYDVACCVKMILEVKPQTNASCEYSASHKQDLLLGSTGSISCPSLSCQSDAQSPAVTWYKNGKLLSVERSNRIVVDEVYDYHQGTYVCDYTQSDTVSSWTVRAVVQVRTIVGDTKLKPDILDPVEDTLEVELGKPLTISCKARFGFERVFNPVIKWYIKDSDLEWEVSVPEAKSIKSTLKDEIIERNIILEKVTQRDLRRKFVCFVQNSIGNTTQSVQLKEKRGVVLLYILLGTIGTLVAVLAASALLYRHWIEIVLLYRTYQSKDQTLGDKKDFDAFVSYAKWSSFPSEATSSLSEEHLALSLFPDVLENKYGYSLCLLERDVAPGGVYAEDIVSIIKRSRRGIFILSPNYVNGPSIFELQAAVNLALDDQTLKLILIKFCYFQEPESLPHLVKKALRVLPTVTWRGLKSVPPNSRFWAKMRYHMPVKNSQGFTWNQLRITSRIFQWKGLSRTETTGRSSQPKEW

T2: IL-18 receptor alpha subunit (Biotinylated for capture on streptavidin (SAX2) biosensors. The site and tag are not given in the patent.)
T2 construct: also called IL18 receptor alpha (Acro, IL1-H82E7); IL-18Ra
T2 chain: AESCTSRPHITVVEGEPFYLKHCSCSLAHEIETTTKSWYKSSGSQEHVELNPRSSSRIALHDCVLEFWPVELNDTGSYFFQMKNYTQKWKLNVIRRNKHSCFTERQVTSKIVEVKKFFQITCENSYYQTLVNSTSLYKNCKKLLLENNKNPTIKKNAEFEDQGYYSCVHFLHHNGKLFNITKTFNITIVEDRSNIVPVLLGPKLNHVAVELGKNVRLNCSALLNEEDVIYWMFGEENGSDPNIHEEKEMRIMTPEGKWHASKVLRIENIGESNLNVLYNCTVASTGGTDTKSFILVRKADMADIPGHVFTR

B1: C086 (SEQ ID NO: 30) (ligand)
chain: YFGKLKSKLSIIRNLNDQVLFIDQGNRPLFEDMTDSDARDNAPRTIFIISMYADSQPRGMAVAISVKCEKISTLSAENKIISFKEMNPPDNIKDTKSDIIFFQRSVPGHDNKMQFESSSYEGYFLAAEKERDLFKLILKKEDELGDRSIMFTVQNED
B2: C185 (ligand)
chain: MAAEPVEDNCINFVAMKFIDNTLYFIAEDDENLESDPLGYFGKLKSKLSIIRNLNDQVLFIDQGNRPLFEDMTDSDARDNAPRTIFIISMYADSQPRGMAVAISVKCEKISTLSAENKIISFKEMNPPDNIKDTKSDIIFFQRSVPGHDNKMQFESSSYEGYFLAAEKERDLFKLILKKEDELGDRSIMFTVQNED

Key:
[1] = target: T1, IL-18 receptor (IL-18Rαβ) on cells; test: cell-based or functional assay
[2] = target: T1, IL-18 receptor (IL-18Rαβ) on cells; test: cell-based or functional assay; remark: listed apart in the source
[3] = target: T1, IL-18 receptor (IL-18Rαβ) on cells; test: cell-based or functional assay; remark: listed apart in the source
[4] = target: T1, IL-18 receptor (IL-18Rαβ) on cells; test: cell-based or functional assay; remark: listed apart in the source
[5] = target: T1, IL-18 receptor (IL-18Rαβ) on cells; test: cell-based or functional assay; remark: listed apart in the source
[6] = target: T2, IL-18 receptor alpha subunit; test: BLI (Octet R8), IL-18 receptor alpha on streptavidin (SAX2) biosensor, analyte 1000 nM to 1.25 nM in 1:3 dilutions
Source text: Act-IL18 candidates C185, C314, and C315 were digested as described above and characterized by BLI. Briefly, undigested and digested samples were compared for their binding against IL18 receptor on an Octet R8 (Sartorius).

Binder | HEK-Blue IL-18R reporter EC50 [1] [pM] | IFNg release PBMCs assay EC50 [2] [pM] | HEK-blue EC50 [3] [nM] | Hek Blue reporter assay EC50 [4] [pM] | IFNγ release NK-92 assay EC50 [5] [nM] | Fold potency loss vs C086 [3] [fold] | binding result [6]
B1 | 0.034 | 2.2 | 0.04 | 0.057 | 0.0018 |  | 
B2 |  |  | 2560 | 2790 | 210 | 60900 | no binding
